In the supplement of paper PMC7125110:
± gives the standard error. Fewer inactive variants are shown than the library holds.

B1: glmS ribozyme (parent)
chain: AUAAAAGCGCCAGAACUACAGAAAUGUAGUUGACGAGGAGGAGGUUUAUCGAAUUUUCGGCGGAUGCCUCCAAA

What was measured:
Conditions in all cases: with glucosamine-6-phosphate
glucosamine-6-phosphate [1] = variants of: B1; test: self-cleavage kobs at 40 uM GlcN6P; higher = faster cleavage; RNA array
How it was run: (§1)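 Barcoded ribozyme variants on sequenced MiSeq chips were transcribed in situ by E. coli RNA polymerase and followed at 37 °C through a hybridised Cy3 probe. Glucosamine-6-phosphate at 40 μM to 10 mM in HEPES/KCl/Mg(OAc)2 buffer was flowed in, and tiles were imaged over ~14 h. Signals were normalised to baseline and to non-cleaving reference variants, and per-tile medians were fit to one- or two-exponential decays to give kobs. Weighted Michaelis–Menten fits across concentrations gave kcat and KM.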

glucosamine-6-phosphate [2] = variants of: B1; test: self-cleavage kobs at 160 uM GlcN6P; higher = faster cleavage; RNA array
How it was run: as §1

glucosamine-6-phosphate [3] = variants of: B1; test: self-cleavage kobs at 2500 uM GlcN6P; higher = faster cleavage; RNA array
How it was run: as §1

glucosamine-6-phosphate [4] = variants of: B1; test: self-cleavage kobs at 10000 uM GlcN6P; higher = faster cleavage; RNA array
How it was run: as §1

glucosamine-6-phosphate [5] = variants of: B1; test: self-cleavage kobs at 640 uM GlcN6P; higher = faster cleavage; RNA array
How it was run: as §1

Variant	self-cleavage kobs at 40 uM GlcN6P (glucosamine-6-phosphate [1])	self-cleavage kobs at 160 uM GlcN6P (glucosamine-6-phosphate [2])	self-cleavage kobs at 2500 uM GlcN6P (glucosamine-6-phosphate [3])	self-cleavage kobs at 10000 uM GlcN6P (glucosamine-6-phosphate [4])	self-cleavage kobs at 640 uM GlcN6P (glucosamine-6-phosphate [5])
C11G C34A	< 1e-05 s⁻¹	< 1e-05 s⁻¹	< 1e-05 s⁻¹	< 1e-05 s⁻¹	
C8G G41U C71U	< 1e-05 s⁻¹			< 1e-05 s⁻¹	
G35C U46G A48G U65C C68A	< 1e-05 s⁻¹				
G29C G44A G60A A64G		< 1e-05 s⁻¹	< 1e-05 s⁻¹		< 1e-05 s⁻¹
G7U U30C G32A		< 1e-05 s⁻¹		< 1e-05 s⁻¹	
C16A G37U G38A U45A U55G	< 1e-05 s⁻¹			< 1e-05 s⁻¹	
G7A G43C C71U		< 1e-05 s⁻¹			< 1e-05 s⁻¹
U56A G63C		< 1e-05 s⁻¹	< 1e-05 s⁻¹		
A15G A33C C58G		< 1e-05 s⁻¹			< 1e-05 s⁻¹
A39C G51U C71A		< 1e-05 s⁻¹			
C10U G59C	< 1e-05 s⁻¹	< 1e-05 s⁻¹		< 1e-05 s⁻¹	< 1e-05 s⁻¹
A36G G40A G44A U46G G51C		< 1e-05 s⁻¹	< 1e-05 s⁻¹		
G7A U65C		< 1e-05 s⁻¹	< 1e-05 s⁻¹	< 1e-05 s⁻¹	< 1e-05 s⁻¹
C8U A14G G37A A39U G40U U47A C58G U65G C70U	< 1e-05 s⁻¹		< 1e-05 s⁻¹		
G9C U49C		< 1e-05 s⁻¹	< 1e-05 s⁻¹	< 1e-05 s⁻¹	< 1e-05 s⁻¹
U47C A53G	0.000125 ± 2.2e-05 s⁻¹	0.000176 ± 5.7e-05 s⁻¹	0.00477 ± 0.0011 s⁻¹	0.00419 ± 0.00092 s⁻¹	0.00114 ± 0.00018 s⁻¹
G35C G51A C68U	< 1e-05 s⁻¹				
A42G U46G U65C C68U		< 1e-05 s⁻¹			
C16U G37U C68G U69G		4.65e-05 ± 2.2e-05 s⁻¹	4.23e-05 ± 1.8e-05 s⁻¹		0.000144 ± 7.1e-05 s⁻¹
C50A G51C U55C G60U		< 1e-05 s⁻¹		< 1e-05 s⁻¹	
C10G G29C C50G C58G A64U C70A		0.000119 ± 3.1e-05 s⁻¹	0.000165 ± 4e-05 s⁻¹		0.000201 ± 6.9e-05 s⁻¹
A14G G29U A52C C68A		0.000918 ± 0.00046 s⁻¹			0.000113 ± 4.7e-05 s⁻¹
A6C U49G G62A A64G		< 1e-05 s⁻¹	< 1e-05 s⁻¹		< 1e-05 s⁻¹
C34A U45G G66U U69G		< 1e-05 s⁻¹	< 1e-05 s⁻¹		< 1e-05 s⁻¹
A39U C61U G62U		< 1e-05 s⁻¹	< 1e-05 s⁻¹		< 1e-05 s⁻¹

Variant	self-cleavage kobs at 40 uM GlcN6P (glucosamine-6-phosphate [1])	self-cleavage kobs at 160 uM GlcN6P (glucosamine-6-phosphate [2])	self-cleavage kobs at 2500 uM GlcN6P (glucosamine-6-phosphate [3])	self-cleavage kobs at 10000 uM GlcN6P (glucosamine-6-phosphate [4])	self-cleavage kobs at 640 uM GlcN6P (glucosamine-6-phosphate [5])
G32A A42C		< 1e-05 s⁻¹	< 1e-05 s⁻¹	< 1e-05 s⁻¹	< 1e-05 s⁻¹
A15U A33G G38C G40C C68U	< 1e-05 s⁻¹			< 1e-05 s⁻¹	
C8G G44A		< 1e-05 s⁻¹	< 1e-05 s⁻¹	< 1e-05 s⁻¹	< 1e-05 s⁻¹
C8A G13U		< 1e-05 s⁻¹	< 1e-05 s⁻¹	< 1e-05 s⁻¹	< 1e-05 s⁻¹
G29A G35A		< 1e-05 s⁻¹	< 1e-05 s⁻¹		
G35C U56G	< 1e-05 s⁻¹	< 1e-05 s⁻¹	< 1e-05 s⁻¹	< 1e-05 s⁻¹	< 1e-05 s⁻¹
G38C A48U U65A	< 1e-05 s⁻¹				
G9C A12G		< 1e-05 s⁻¹	< 1e-05 s⁻¹	< 1e-05 s⁻¹	
U30A A48U G62A		< 1e-05 s⁻¹	< 1e-05 s⁻¹		< 1e-05 s⁻¹
C8A A14U		< 1e-05 s⁻¹	< 1e-05 s⁻¹		< 1e-05 s⁻¹
G29U A42G A53U		0.000316 ± 6.8e-05 s⁻¹	0.00271 ± 0.00069 s⁻¹		0.00125 ± 0.00026 s⁻¹
C8A G40A	< 1e-05 s⁻¹		< 1e-05 s⁻¹		< 1e-05 s⁻¹
A6G A14U U31C C50G	4.57e-05 ± 2.1e-05 s⁻¹			0.000265 ± 9.7e-05 s⁻¹	
C11G U46G C61A G66A		< 1e-05 s⁻¹	< 1e-05 s⁻¹		< 1e-05 s⁻¹
G37C C71G		< 1e-05 s⁻¹		< 1e-05 s⁻¹	
C34U G37C G51A C68A	< 1e-05 s⁻¹				
A12C A42C A52C C61U U69A		< 1e-05 s⁻¹			
A48G U57A		< 1e-05 s⁻¹	< 1e-05 s⁻¹		< 1e-05 s⁻¹
U31G C68G		0.000192 ± 8.2e-05 s⁻¹	6.11e-05 ± 1.1e-05 s⁻¹	3.16e-05 ± 8.9e-06 s⁻¹	
C11G A39G G63U	< 1e-05 s⁻¹		< 1e-05 s⁻¹	< 1e-05 s⁻¹	
A36C U47G U69G		0.000151 ± 3.4e-05 s⁻¹	0.000213 ± 6e-05 s⁻¹		8.37e-05 ± 1.5e-05 s⁻¹
G7U C67A		< 1e-05 s⁻¹			< 1e-05 s⁻¹
G13C C16A C68U		< 1e-05 s⁻¹			
G43C G60C C68U		< 1e-05 s⁻¹			< 1e-05 s⁻¹
C34A C58A		< 1e-05 s⁻¹	< 1e-05 s⁻¹	< 1e-05 s⁻¹	< 1e-05 s⁻¹

Variant	self-cleavage kobs at 40 uM GlcN6P (glucosamine-6-phosphate [1])	self-cleavage kobs at 160 uM GlcN6P (glucosamine-6-phosphate [2])	self-cleavage kobs at 2500 uM GlcN6P (glucosamine-6-phosphate [3])	self-cleavage kobs at 10000 uM GlcN6P (glucosamine-6-phosphate [4])	self-cleavage kobs at 640 uM GlcN6P (glucosamine-6-phosphate [5])
A15G U55G C71G		0.00025 ± 5.3e-05 s⁻¹	0.000866 ± 0.00028 s⁻¹		0.000408 ± 9.6e-05 s⁻¹
A39C U49G	< 1e-05 s⁻¹	< 1e-05 s⁻¹	4.21e-05 ± 1.9e-05 s⁻¹	6.91e-05 ± 9.5e-06 s⁻¹	
U30A G38C A52G U69A	< 1e-05 s⁻¹		< 1e-05 s⁻¹	< 1e-05 s⁻¹	
G7C C8G A52G		< 1e-05 s⁻¹	< 1e-05 s⁻¹		< 1e-05 s⁻¹
G7C G9U A36G C68A		< 1e-05 s⁻¹	< 1e-05 s⁻¹		< 1e-05 s⁻¹
G9C A53G		< 1e-05 s⁻¹	< 1e-05 s⁻¹	< 1e-05 s⁻¹	
G9A G29A A48C C58U		< 1e-05 s⁻¹			
C10A A52U C68A		7.21e-05 ± 2.5e-05 s⁻¹			
G59C G63A		< 1e-05 s⁻¹		< 1e-05 s⁻¹	< 1e-05 s⁻¹
A6G G40U A48C G62A U65G	< 1e-05 s⁻¹			< 1e-05 s⁻¹	
C11G U47G		< 1e-05 s⁻¹	< 1e-05 s⁻¹	< 1e-05 s⁻¹	
A6U C10G A36C		< 1e-05 s⁻¹	< 1e-05 s⁻¹		
A12G A33G		< 1e-05 s⁻¹	< 1e-05 s⁻¹	< 1e-05 s⁻¹	< 1e-05 s⁻¹
C8A A14G U57C	< 1e-05 s⁻¹		< 1e-05 s⁻¹		< 1e-05 s⁻¹
A6C A36G C50U C67U		< 1e-05 s⁻¹	< 1e-05 s⁻¹		
G13A C67U		2.9e-05 ± 1.4e-05 s⁻¹	0.000122 ± 1.2e-05 s⁻¹	0.000405 ± 9e-05 s⁻¹	4.93e-05 ± 8.8e-06 s⁻¹
A33G G37A A39C G63C C68G		< 1e-05 s⁻¹			< 1e-05 s⁻¹
C10G G43A A48G U54G C58A A64U	< 1e-05 s⁻¹		< 1e-05 s⁻¹	< 1e-05 s⁻¹	< 1e-05 s⁻¹
U55G G62C		< 1e-05 s⁻¹	< 1e-05 s⁻¹	< 1e-05 s⁻¹	< 1e-05 s⁻¹
C8U U46A		< 1e-05 s⁻¹	< 1e-05 s⁻¹	< 1e-05 s⁻¹	
C8U U57G	< 1e-05 s⁻¹		< 1e-05 s⁻¹		
G40A C58G C70U	< 1e-05 s⁻¹			< 1e-05 s⁻¹	
A33C C71U	< 1e-05 s⁻¹	< 1e-05 s⁻¹		4.08e-05 ± 1e-05 s⁻¹	
A12G A39U A53C		< 1e-05 s⁻¹			
A6G G32U G40A C61G		< 1e-05 s⁻¹	< 1e-05 s⁻¹		< 1e-05 s⁻¹

Variant	self-cleavage kobs at 40 uM GlcN6P (glucosamine-6-phosphate [1])	self-cleavage kobs at 160 uM GlcN6P (glucosamine-6-phosphate [2])	self-cleavage kobs at 2500 uM GlcN6P (glucosamine-6-phosphate [3])	self-cleavage kobs at 10000 uM GlcN6P (glucosamine-6-phosphate [4])	self-cleavage kobs at 640 uM GlcN6P (glucosamine-6-phosphate [5])
G13U G32U C34A G35U		< 1e-05 s⁻¹	< 1e-05 s⁻¹		< 1e-05 s⁻¹
C34A G41C		< 1e-05 s⁻¹	< 1e-05 s⁻¹	< 1e-05 s⁻¹	< 1e-05 s⁻¹
C8U C58U C67U U69C	0.00084 ± 0.00041 s⁻¹			0.000669 ± 0.00018 s⁻¹	
C8G C61A C68U		< 1e-05 s⁻¹			
G51U C61A C71A		< 1e-05 s⁻¹	< 1e-05 s⁻¹		< 1e-05 s⁻¹
G9A C67A C68G		< 1e-05 s⁻¹	< 1e-05 s⁻¹		< 1e-05 s⁻¹
G37A G59A G62A		< 1e-05 s⁻¹			
U57C G63A		< 1e-05 s⁻¹	< 1e-05 s⁻¹	< 1e-05 s⁻¹	< 1e-05 s⁻¹
G38A G40U		< 1e-05 s⁻¹	< 1e-05 s⁻¹	< 1e-05 s⁻¹	< 1e-05 s⁻¹
A12C G29C A52C A64C		< 1e-05 s⁻¹			< 1e-05 s⁻¹
C8U G13U	< 1e-05 s⁻¹		< 1e-05 s⁻¹	< 1e-05 s⁻¹	< 1e-05 s⁻¹
G13U G32A G41C G63U C71A		< 1e-05 s⁻¹	< 1e-05 s⁻¹		< 1e-05 s⁻¹
G9U C34U U54A		< 1e-05 s⁻¹			
A6C G37U C50U G60C		< 1e-05 s⁻¹			< 1e-05 s⁻¹
C10G C11U	< 1e-05 s⁻¹				< 1e-05 s⁻¹
C34G G40U G62C		< 1e-05 s⁻¹			
C16G G41C G59A		< 1e-05 s⁻¹	< 1e-05 s⁻¹		< 1e-05 s⁻¹
U46G G60C A64U		< 1e-05 s⁻¹	< 1e-05 s⁻¹	< 1e-05 s⁻¹	
G32U C34A G40C U57A G62U		< 1e-05 s⁻¹			
C11G G38C	< 1e-05 s⁻¹		< 1e-05 s⁻¹		< 1e-05 s⁻¹
A6G A14G C16U G32U G35C G41C C50A C71G		< 1e-05 s⁻¹	< 1e-05 s⁻¹		
A12G A15G A53C C67G	< 1e-05 s⁻¹				
